{"source": "patent US11325966", "assay_in_all_cases": "cell-based or functional assay", "key": {"JR-CSF N332A (HIV-1)": {"target": "JR-CSF N332A (HIV-1) (UniProt P20871)"}, "JR-CSF N392A (HIV-1)": {"target": "JR-CSF N392A (HIV-1) (UniProt P20871)"}, "92BR020 N332A (HIV-1)": {"target": "92BR020 N332A (HIV-1)"}, "92BR020 N386A (HIV-1)": {"target": "92BR020 N386A (HIV-1)"}, "[1]": {"target": "92BR020 N301A + N332A (HIV-1)"}, "[2]": {"target": "92BR020 N136A + N332A (HIV-1)"}, "[3]": {"target": "92BR020 N156A + N332A (HIV-1)"}, "JR-CSF R327A (HIV-1)": {"target": "JR-CSF R327A (HIV-1) (UniProt P20871)"}, "[4]": {"target": "BG505 (T332N) N392A (HIV-1)"}, "JR-CSF Q328A (HIV-1)": {"target": "JR-CSF Q328A (HIV-1) (UniProt P20871)"}, "JR-CSF G324A (HIV-1)": {"target": "JR-CSF G324A (HIV-1) (UniProt P20871)"}, "[5]": {"target": "BG505 (T332N) N156A (HIV-1)"}, "[6]": {"target": "BG505 (T332N) N295A (HIV-1)"}, "JR-CSF N301A (HIV-1)": {"target": "JR-CSF N301A (HIV-1) (UniProt P20871)"}, "92BR020 N392A (HIV-1)": {"target": "92BR020 N392A (HIV-1)"}, "BG505 (T332N) (HIV-1)": {"target": "BG505 (T332N) (HIV-1)"}, "92BR020 (HIV-1)": {"target": "92BR020 (HIV-1)"}, "JR-CSF N386A (HIV-1)": {"target": "JR-CSF N386A (HIV-1) (UniProt P20871)"}, "JR-CSF D325A (HIV-1)": {"target": "JR-CSF D325A (HIV-1) (UniProt P20871)"}, "[7]": {"target": "BG505 (T332N) N301A (HIV-1)"}, "92BR020 H33OA (HIV-1)": {"target": "92BR020 H33OA (HIV-1)"}, "92BR020 Q328A (HIV-1)": {"target": "92BR020 Q328A (HIV-1)"}, "JR-CSF H33OA (HIV-1)": {"target": "JR-CSF H33OA (HIV-1) (UniProt P20871)"}, "92BR020 N156A (HIV-1)": {"target": "92BR020 N156A (HIV-1)"}, "92BR020 N136A (HIV-1)": {"target": "92BR020 N136A (HIV-1)"}, "92BR020 D325A (HIV-1)": {"target": "92BR020 D325A (HIV-1)"}, "92BR020 I326A (HIV-1)": {"target": "92BR020 I326A (HIV-1)"}, "92BR020 R327A (HIV-1)": {"target": "92BR020 R327A (HIV-1)"}, "92BR020 N301A (HIV-1)": {"target": "92BR020 N301A (HIV-1)"}, "JR-CSF N362A (HIV-1)": {"target": "JR-CSF N362A (HIV-1) (UniProt P20871)"}, "JR-CSF N295A (HIV-1)": {"target": "JR-CSF N295A (HIV-1) (UniProt P20871)"}, "JR-CSF I326A (HIV-1)": {"target": "JR-CSF I326A (HIV-1) (UniProt P20871)"}, "[8]": {"target": "92BR020 N136A + N156A + N301A (HIV-1)"}, "JR-CSF N339A (HIV-1)": {"target": "JR-CSF N339A (HIV-1) (UniProt P20871)"}, "[9]": {"target": "BG505 (T332N) N137A (HIV-1)"}, "[10]": {"target": "BG505 (T332N) N386A (HIV-1)"}, "JR-CSF (HIV-1)": {"target": "JR-CSF (HIV-1) (UniProt P20871)"}, "[11]": {"target": "118-virus panel (Env of HIV-1 pseudoviruses)"}}}
{"molecule": "354BG18 (antibody)", "values": [{"measurement": "IC50 in TZM-bl assay", "setting": "JR-CSF N332A (HIV-1)", "result": "> 50", "unit": "µg/mL"}, {"measurement": "IC50 in TZM-bl assay", "setting": "JR-CSF N392A (HIV-1)", "result": 0.002, "unit": "µg/mL"}, {"measurement": "IC50 in TZM-bl assay", "setting": "92BR020 N332A (HIV-1)", "result": "> 50", "unit": "µg/mL"}, {"measurement": "IC50 in TZM-bl assay", "setting": "92BR020 N386A (HIV-1)", "result": 0.003, "unit": "µg/mL"}, {"measurement": "IC50 in TZM-bl assay", "setting": "[1]", "result": "> 50", "unit": "µg/mL"}, {"measurement": "IC50 in TZM-bl assay", "setting": "[2]", "result": "> 50", "unit": "µg/mL"}, {"measurement": "IC50 in TZM-bl assay", "setting": "[3]", "result": "> 50", "unit": "µg/mL"}]}
{"molecule": "control mAb 12A12 (antibody)", "values": [{"measurement": "IC50 in TZM-bl assay", "setting": "JR-CSF R327A (HIV-1)", "result": 0.131, "unit": "µg/mL"}, {"measurement": "IC50 in TZM-bl assay", "setting": "[4]", "result": 0.012, "unit": "µg/mL"}, {"measurement": "IC50 in TZM-bl assay", "setting": "JR-CSF Q328A (HIV-1)", "result": 0.038, "unit": "µg/mL"}, {"measurement": "IC50 in TZM-bl assay", "setting": "JR-CSF N332A (HIV-1)", "result": 0.24, "unit": "µg/mL"}, {"measurement": "IC50 in TZM-bl assay", "setting": "JR-CSF G324A (HIV-1)", "result": 0.236, "unit": "µg/mL"}, {"measurement": "IC50 in TZM-bl assay", "setting": "[5]", "result": 0.024, "unit": "µg/mL"}, {"measurement": "IC50 in TZM-bl assay", "setting": "[6]", "result": 0.044, "unit": "µg/mL"}, {"measurement": "IC50 in TZM-bl assay", "setting": "JR-CSF N392A (HIV-1)", "result": 0.23, "unit": "µg/mL"}, {"measurement": "IC50 in TZM-bl assay", "setting": "JR-CSF N301A (HIV-1)", "result": 0.01, "unit": "µg/mL"}, {"measurement": "IC50 in TZM-bl assay", "setting": "92BR020 N392A (HIV-1)", "result": 0.105, "unit": "µg/mL"}, {"measurement": "IC50 in TZM-bl assay", "setting": "BG505 (T332N) (HIV-1)", "result": 0.03, "unit": "µg/mL"}, {"measurement": "IC50 in TZM-bl assay", "setting": "92BR020 N332A (HIV-1)", "result": 0.039, "unit": "µg/mL"}, {"measurement": "IC50 in TZM-bl assay", "setting": "92BR020 (HIV-1)", "result": 0.05, "unit": "µg/mL"}, {"measurement": "IC50 in TZM-bl assay", "setting": "JR-CSF N386A (HIV-1)", "result": 0.332, "unit": "µg/mL"}, {"measurement": "IC50 in TZM-bl assay", "setting": "JR-CSF D325A (HIV-1)", "result": 0.203, "unit": "µg/mL"}, {"measurement": "IC50 in TZM-bl assay", "setting": "[7]", "result": 0.027, "unit": "µg/mL"}, {"measurement": "IC50 in TZM-bl assay", "setting": "92BR020 H33OA (HIV-1)", "result": 0.073, "unit": "µg/mL"}, {"measurement": "IC50 in TZM-bl assay", "setting": "92BR020 Q328A (HIV-1)", "result": 0.028, "unit": "µg/mL"}, {"measurement": "IC50 in TZM-bl assay", "setting": "JR-CSF H33OA (HIV-1)", "result": 0.288, "unit": "µg/mL"}, {"measurement": "IC50 in TZM-bl assay", "setting": "92BR020 N156A (HIV-1)", "result": 0.035, "unit": "µg/mL"}, {"measurement": "IC50 in TZM-bl assay", "setting": "92BR020 N136A (HIV-1)", "result": 0.027, "unit": "µg/mL"}, {"measurement": "IC50 in TZM-bl assay", "setting": "92BR020 D325A (HIV-1)", "result": 0.05, "unit": "µg/mL"}, {"measurement": "IC50 in TZM-bl assay", "setting": "92BR020 I326A (HIV-1)", "result": 0.011, "unit": "µg/mL"}, {"measurement": "IC50 in TZM-bl assay", "setting": "92BR020 N386A (HIV-1)", "result": 0.055, "unit": "µg/mL"}, {"measurement": "IC50 in TZM-bl assay", "setting": "92BR020 R327A (HIV-1)", "result": 0.022, "unit": "µg/mL"}, {"measurement": "IC50 in TZM-bl assay", "setting": "92BR020 N301A (HIV-1)", "result": 0.011, "unit": "µg/mL"}, {"measurement": "IC50 in TZM-bl assay", "setting": "[1]", "result": 0.007, "unit": "µg/mL"}, {"measurement": "IC50 in TZM-bl assay", "setting": "JR-CSF N362A (HIV-1)", "result": 0.267, "unit": "µg/mL"}, {"measurement": "IC50 in TZM-bl assay", "setting": "JR-CSF N295A (HIV-1)", "result": 0.203, "unit": "µg/mL"}, {"measurement": "IC50 in TZM-bl assay", "setting": "JR-CSF I326A (HIV-1)", "result": 0.278, "unit": "µg/mL"}, {"measurement": "IC50 in TZM-bl assay", "setting": "[8]", "result": 0.013, "unit": "µg/mL"}, {"measurement": "IC50 in TZM-bl assay", "setting": "JR-CSF N339A (HIV-1)", "result": 0.028, "unit": "µg/mL"}, {"measurement": "IC50 in TZM-bl assay", "setting": "[9]", "result": 0.027, "unit": "µg/mL"}, {"measurement": "IC50 in TZM-bl assay", "setting": "[10]", "result": 0.03, "unit": "µg/mL"}, {"measurement": "IC50 in TZM-bl assay", "setting": "[2]", "result": 0.025, "unit": "µg/mL"}, {"measurement": "IC50 in TZM-bl assay", "setting": "JR-CSF (HIV-1)", "result": 0.233, "unit": "µg/mL"}, {"measurement": "IC50 in TZM-bl assay", "setting": "[3]", "result": 0.023, "unit": "µg/mL"}]}
{"molecule": "BG1 IgG (antibody, V domains shown) VH: AEQLVESGGGLVPPGRSLRLSCSASGFYFPDYAMAWVRQAPGQGLQWVGFMRGWAYGGSAQFAAFAVGKFAISRDDGRNVVYLDVKNPTFEDTGVYFCAREQRNKDYRYGQEGFGYSYGMDVWGRGTTVVVST VL: DIHMTQSPVSLSASVGDRVTITCRASHFIANYVNWYQQKPGKAPTLLIFESSTLQRGVPSRFSAYGDGTEFTLSINTLQPEDFASYICQQSHSPPVTFGAGTRVDQK", "values": [{"measurement": "geometric mean IC50 in TZM-bl assay", "setting": "[11]", "result": 0.67, "unit": "µg/mL"}]}
